As a reminder, the stoichiometry N is a count of units in the complex or per binding partner.

These results are taken from publication PMC10583550.

The target of the test is NtFD1-Flag (Nicotiana tabacum). Kind of test: native gel or EMSA; extract of N. benthamiana leaves expressing NtFD1-Flag loaded directly onto a native PAGE gel, then western blotting; native protein marker GAPDH used for size. Background: A gel shift assay detects complexes by their altered migration in electrophoresis.

Consider NtFD1-Flag (natural protein), for which the stoichiometry N came out at 4.
